Values quoted from earlier work in article PMC9255719.
Where “and” joins values, the source holds several entries; their conditions need not be identical. Equal entries are not always repeated. Where two headings read alike, the source gives them in different places.

What was measured:
[1] = biological target: Albumin-Alexa 568 conjugate (4:1) (UniProt P02770); assay: not stated in this review (data reproduced from ref [155]); details: pH 6; not stated (pH 6 and pH 7.4)
[2] = biological target: Albumin-Alexa 647 maleimide conjugate (1:1) (UniProt P02770); assay: as above; details: pH 6; not stated (pH 6 and pH 7.4)
[3] = biological target: Albumin-CF-594 maleimide conjugate (dye:albumin 1:3) (UniProt P02770); assay: as above; details: pH 6; not stated (pH 6 and pH 7.4)
[4] = biological target: Albumin-Texas Red conjugate (1:1) (UniProt P02770); assay: as above; details: not stated (pH 6 and pH 7.4)
[5] = biological target: Albumin-Texas Red-X conjugate (1:1) (UniProt P02770); assay: as above; details: pH 6; not stated (pH 6 and pH 7.4)
[6] = biological target: Albumin-Texas Red-X conjugate (2:1) (UniProt P02770); assay: as above; details: pH 6; not stated (pH 6 and pH 7.4)
[7] = biological target: Albumin-Texas Red-X conjugate (4:1) (UniProt P02770); assay: as above; details: pH 6; not stated (pH 6 and pH 7.4)
[8] = biological target: Albumin-Texas Red-X conjugate (5:1) (UniProt P02770); assay: as above; details: pH 6; not stated (pH 6 and pH 7.4)
[9] = biological target: Albumin-fluorescein conjugate (6.4:1) (UniProt P02770); assay: as above; details: not stated (pH 6 and pH 7.4)
[10] = biological target: Serum albumin, unlabelled ('No dye') (UniProt P02770); assay: as above; details: not stated (pH 6 and pH 7.4)
cubilin = cubilin (UniProt O60494)
FcRn (Rattus norvegicus) [11] = biological target: FcRn (Rattus norvegicus) (UniProt P13599)
FcRn (Rattus norvegicus) [12] = biological target: FcRn (Rattus norvegicus) (UniProt P13599); remark: listed apart in the source
FcRn (Rattus norvegicus) [13] = biological target: FcRn (Rattus norvegicus) (UniProt P13599); remark: listed apart in the source
FcRn (Homo sapiens) [14] = biological target: FcRn (Homo sapiens) (UniProt P55899)
FcRn (Rattus norvegicus) [15] = biological target: FcRn (Rattus norvegicus) (UniProt P13599); remark: listed apart in the source
FcRn (Rattus norvegicus) [16] = biological target: FcRn (Rattus norvegicus) (UniProt P13599); remark: listed apart in the source
FcRn (Rattus norvegicus) [17] = biological target: FcRn (Rattus norvegicus) (UniProt P13599); remark: listed apart in the source
FcRn (Rattus norvegicus) [18] = biological target: FcRn (Rattus norvegicus) (UniProt P13599); remark: listed apart in the source
FcRn (Rattus norvegicus) [19] = biological target: FcRn (Rattus norvegicus) (UniProt P13599); remark: listed apart in the source
FcRn (Rattus norvegicus) [20] = biological target: FcRn (Rattus norvegicus) (UniProt P13599); remark: listed apart in the source
FcRn (Rattus norvegicus) [21] = biological target: FcRn (Rattus norvegicus) (UniProt P13599); remark: listed apart in the source
FcRn (Rattus norvegicus) [22] = biological target: FcRn (Rattus norvegicus) (UniProt P13599); remark: listed apart in the source
FcRn (Homo sapiens) [23] = biological target: FcRn (Homo sapiens) (UniProt P55899); remark: listed apart in the source
FcRn (Rattus norvegicus) [24] = biological target: FcRn (Rattus norvegicus) (UniProt P13599); remark: listed apart in the source
FcRn (Rattus norvegicus) [25] = biological target: FcRn (Rattus norvegicus) (UniProt P13599); remark: listed apart in the source
FcRn (Rattus norvegicus) [26] = biological target: FcRn (Rattus norvegicus) (UniProt P13599); remark: listed apart in the source

UniProt P13599, sequence (P13599 23-298): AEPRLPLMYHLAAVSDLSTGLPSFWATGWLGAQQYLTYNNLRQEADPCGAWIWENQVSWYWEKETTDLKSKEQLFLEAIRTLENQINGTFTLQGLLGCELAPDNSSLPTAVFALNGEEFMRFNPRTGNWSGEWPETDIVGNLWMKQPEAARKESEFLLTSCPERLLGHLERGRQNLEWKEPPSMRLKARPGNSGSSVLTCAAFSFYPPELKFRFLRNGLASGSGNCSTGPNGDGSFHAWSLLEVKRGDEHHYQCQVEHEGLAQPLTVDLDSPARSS
UniProt P55899, sequence (P55899 24-297): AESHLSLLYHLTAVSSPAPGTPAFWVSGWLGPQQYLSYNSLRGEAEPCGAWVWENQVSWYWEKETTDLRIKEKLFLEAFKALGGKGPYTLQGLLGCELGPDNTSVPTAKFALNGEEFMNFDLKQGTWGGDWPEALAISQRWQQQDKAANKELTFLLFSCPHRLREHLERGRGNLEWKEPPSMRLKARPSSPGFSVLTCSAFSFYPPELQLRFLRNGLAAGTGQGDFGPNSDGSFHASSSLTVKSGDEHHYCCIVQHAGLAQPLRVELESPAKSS
UniProt O60494, sequence (O60494 36-3623): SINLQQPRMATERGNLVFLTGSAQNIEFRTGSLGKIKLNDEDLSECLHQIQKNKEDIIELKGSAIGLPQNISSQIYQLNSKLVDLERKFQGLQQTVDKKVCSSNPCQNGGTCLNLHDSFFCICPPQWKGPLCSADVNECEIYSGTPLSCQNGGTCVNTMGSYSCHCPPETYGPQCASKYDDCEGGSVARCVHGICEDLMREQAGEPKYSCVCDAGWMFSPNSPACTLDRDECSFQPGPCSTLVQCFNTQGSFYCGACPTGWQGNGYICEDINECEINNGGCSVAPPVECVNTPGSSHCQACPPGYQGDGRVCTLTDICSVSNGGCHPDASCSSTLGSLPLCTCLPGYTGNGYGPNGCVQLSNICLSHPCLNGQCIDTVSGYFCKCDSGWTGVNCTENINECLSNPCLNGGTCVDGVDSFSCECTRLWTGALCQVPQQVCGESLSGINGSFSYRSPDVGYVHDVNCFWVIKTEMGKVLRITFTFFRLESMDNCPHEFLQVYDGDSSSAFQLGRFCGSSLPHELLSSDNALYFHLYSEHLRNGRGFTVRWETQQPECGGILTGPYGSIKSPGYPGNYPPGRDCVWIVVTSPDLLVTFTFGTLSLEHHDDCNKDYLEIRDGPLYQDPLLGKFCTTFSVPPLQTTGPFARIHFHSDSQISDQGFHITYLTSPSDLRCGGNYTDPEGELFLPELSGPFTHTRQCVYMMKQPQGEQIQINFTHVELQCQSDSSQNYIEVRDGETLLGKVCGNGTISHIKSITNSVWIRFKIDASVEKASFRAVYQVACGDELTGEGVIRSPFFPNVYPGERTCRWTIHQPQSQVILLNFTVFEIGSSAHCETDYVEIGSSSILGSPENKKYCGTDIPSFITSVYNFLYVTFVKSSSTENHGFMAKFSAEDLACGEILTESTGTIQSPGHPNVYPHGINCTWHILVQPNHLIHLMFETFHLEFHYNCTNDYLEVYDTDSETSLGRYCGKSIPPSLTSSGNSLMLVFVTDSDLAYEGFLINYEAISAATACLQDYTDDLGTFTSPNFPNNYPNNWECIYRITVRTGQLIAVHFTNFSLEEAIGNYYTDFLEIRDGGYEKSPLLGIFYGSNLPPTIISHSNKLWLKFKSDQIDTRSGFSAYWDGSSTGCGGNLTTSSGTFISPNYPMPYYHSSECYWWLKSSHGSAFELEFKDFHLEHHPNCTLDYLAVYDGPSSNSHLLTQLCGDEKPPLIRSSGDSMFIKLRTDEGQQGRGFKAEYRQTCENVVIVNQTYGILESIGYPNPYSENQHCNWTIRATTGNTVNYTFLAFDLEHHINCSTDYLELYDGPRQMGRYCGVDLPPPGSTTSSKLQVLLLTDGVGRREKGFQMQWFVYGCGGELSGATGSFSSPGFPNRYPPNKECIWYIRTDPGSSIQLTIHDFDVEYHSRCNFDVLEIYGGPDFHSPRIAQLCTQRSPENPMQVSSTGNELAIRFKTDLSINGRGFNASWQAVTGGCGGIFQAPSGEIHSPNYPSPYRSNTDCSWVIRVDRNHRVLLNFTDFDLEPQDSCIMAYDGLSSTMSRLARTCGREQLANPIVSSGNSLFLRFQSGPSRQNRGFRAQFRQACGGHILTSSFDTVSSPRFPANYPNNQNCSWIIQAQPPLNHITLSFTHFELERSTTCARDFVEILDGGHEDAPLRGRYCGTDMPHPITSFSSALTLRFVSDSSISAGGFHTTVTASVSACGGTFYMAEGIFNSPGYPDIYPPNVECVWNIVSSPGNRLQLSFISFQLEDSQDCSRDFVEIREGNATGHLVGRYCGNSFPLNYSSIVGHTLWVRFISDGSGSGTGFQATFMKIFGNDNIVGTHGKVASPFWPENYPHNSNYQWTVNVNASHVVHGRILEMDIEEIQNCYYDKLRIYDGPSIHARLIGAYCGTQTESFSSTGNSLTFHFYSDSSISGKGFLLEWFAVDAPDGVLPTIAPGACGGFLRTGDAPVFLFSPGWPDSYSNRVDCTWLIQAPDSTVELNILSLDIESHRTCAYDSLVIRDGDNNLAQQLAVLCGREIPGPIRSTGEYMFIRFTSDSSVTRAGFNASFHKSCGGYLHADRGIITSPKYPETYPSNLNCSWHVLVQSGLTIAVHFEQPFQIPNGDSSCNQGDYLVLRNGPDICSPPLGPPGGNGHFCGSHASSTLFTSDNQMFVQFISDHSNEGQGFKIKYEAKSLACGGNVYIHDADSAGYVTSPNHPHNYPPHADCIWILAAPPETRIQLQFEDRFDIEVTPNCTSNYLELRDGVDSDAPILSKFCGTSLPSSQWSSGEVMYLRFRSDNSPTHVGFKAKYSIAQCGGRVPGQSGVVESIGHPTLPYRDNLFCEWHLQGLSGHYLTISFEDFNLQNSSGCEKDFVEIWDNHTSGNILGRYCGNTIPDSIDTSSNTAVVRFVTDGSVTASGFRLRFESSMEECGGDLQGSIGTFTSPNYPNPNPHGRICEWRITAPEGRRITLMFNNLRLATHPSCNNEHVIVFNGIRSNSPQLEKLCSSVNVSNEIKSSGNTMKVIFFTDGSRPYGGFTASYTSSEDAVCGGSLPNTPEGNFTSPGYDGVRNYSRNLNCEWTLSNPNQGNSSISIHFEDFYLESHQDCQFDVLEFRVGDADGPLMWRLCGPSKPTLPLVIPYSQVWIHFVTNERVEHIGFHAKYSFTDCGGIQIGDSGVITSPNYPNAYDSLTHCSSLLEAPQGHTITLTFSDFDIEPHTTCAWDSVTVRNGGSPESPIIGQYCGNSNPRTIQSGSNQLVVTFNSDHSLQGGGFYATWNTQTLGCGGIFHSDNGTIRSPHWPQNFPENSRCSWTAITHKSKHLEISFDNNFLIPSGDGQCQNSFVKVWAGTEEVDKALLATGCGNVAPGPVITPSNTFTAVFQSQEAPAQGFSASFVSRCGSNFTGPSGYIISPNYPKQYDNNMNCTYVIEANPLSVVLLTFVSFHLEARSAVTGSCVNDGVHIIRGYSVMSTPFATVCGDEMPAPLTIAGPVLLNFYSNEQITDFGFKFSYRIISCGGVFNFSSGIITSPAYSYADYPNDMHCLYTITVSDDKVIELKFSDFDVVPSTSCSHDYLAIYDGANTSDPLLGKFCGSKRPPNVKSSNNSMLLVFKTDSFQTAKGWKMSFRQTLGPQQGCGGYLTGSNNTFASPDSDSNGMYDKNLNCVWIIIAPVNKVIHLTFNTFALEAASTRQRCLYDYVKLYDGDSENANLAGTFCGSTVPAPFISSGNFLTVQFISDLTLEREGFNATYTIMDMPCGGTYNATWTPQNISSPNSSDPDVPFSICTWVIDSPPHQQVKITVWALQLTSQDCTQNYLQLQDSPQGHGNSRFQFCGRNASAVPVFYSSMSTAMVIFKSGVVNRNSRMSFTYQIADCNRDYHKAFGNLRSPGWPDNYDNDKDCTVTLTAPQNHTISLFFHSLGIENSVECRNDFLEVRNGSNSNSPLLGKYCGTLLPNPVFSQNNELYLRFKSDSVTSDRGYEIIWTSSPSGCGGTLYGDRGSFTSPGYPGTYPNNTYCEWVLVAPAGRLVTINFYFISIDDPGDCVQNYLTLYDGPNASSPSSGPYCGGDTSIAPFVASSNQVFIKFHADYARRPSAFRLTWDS

Substance: Neonatal Fc receptor (FcRn), rat (rFcRn)
- Kd [1]: 17 µM
- Kd [2]: 11 µM
- Kd [3]: 1.5 µM
- Kd ([4]; pH 6): 6 µM
- Kd ([4]; pH 7.4): 11 µM
- Kd [5]: 5.4 µM
- Kd [6]: 10 µM
- Kd [7]: > 40 µM
- Kd [8]: > 100 µM
- Kd ([9]; pH 6): 69 µM
- Kd ([9]; pH 7.4): 1 µM
- Kd ([10]; pH 6): 11.6 µM
- Kd ([10]; pH 7.4): > 100 µM

Substance: albumin (from UniProt P02768)
- Kd (cubilin): 0.63 µM
- Kd (FcRn (Rattus norvegicus) [11]): > 100 µM

Substance: albumin (from UniProt P02769)
- Kd (FcRn (Rattus norvegicus) [12]): > 100 µM

Substance: albumin (from UniProt P02770)
- Kd (FcRn (Rattus norvegicus) [13]): 11 µM and 6 µM
- Kd (FcRn (Homo sapiens) [14]): 1.1 µM
- Kd (FcRn (Rattus norvegicus) [15]): 11.6 µM
- Kd (FcRn (Rattus norvegicus) [16]): > 100 µM
- Kd (FcRn (Rattus norvegicus) [17]): 1.5 µM
- Kd (FcRn (Rattus norvegicus) [18]): 17 µM
- Kd (FcRn (Rattus norvegicus) [19]): > 40 µM
- Kd (FcRn (Rattus norvegicus) [20]): 10 µM
- Kd (FcRn (Rattus norvegicus) [21]): 5.4 µM

Substance: albumin (from UniProt P07724)
- Kd (FcRn (Rattus norvegicus) [22]): > 100 µM

Substance: albumin (from UniProt P08835)
- Kd (FcRn (Homo sapiens) [23]): > 50 µM
- Kd (FcRn (Rattus norvegicus) [24]): > 100 µM

Substance: albumin (from UniProt P14639)
- Kd (FcRn (Rattus norvegicus) [25]): > 100 µM

Substance: albumin (from UniProt P49065)
- Kd (FcRn (Rattus norvegicus) [26]): 11.8 µM
